Laboratory results published in patent US20240294623A1 (SCHOLAR ROCK, published 2024).

Assays:
[1] = target: T1, hLTBP3-proTGFβ1 (human, UniProt Q9NS15 44-1303; P01137 30-390, limits assumed); test: SPR (Biacore), Fab
T1 construct: LLC as m1; Same id used for the cell-made complex in reporter assays; also called human LTBP3-proTGFβ1 complex; LTBP3-ProTGFb1
Experimental: (§1) Surface plasmon resonance (SPR) was used to measure binding kinetics using a BIACORE® system. […] Experiments were carried out with eight types of LLCs, namely, hLTBP1-proTGFβ1, mLTBP1-proTGFβ1, hLTBP3-proTGFβ1, mLTBP3-proTGFβ1, hGARP-proTGFβ1, mGARP-proTGFβ1, hLRRC33-proTGFβ1 and mLRRC33-proTGFβ1.
(§2) In vitro binding kinetics (on/off rates) were measured in Biacore-based assays and affinities were determined against all four known LLCs using both human and murine counterparts for each. Based on the association rate and dissociation rate, KD was calculated for each. In addition, relative affinities, as compared to the reference antibody as a benchmark, were calculated and expressed as “fold difference” relative to the reference antibody.
(§3) A BIACORE® system was employed to determine the monovalent binding affinity and the kinetic parameters for antigen binding of test antibodies. The binding kinetics were evaluated by surface plasmon resonance using Biacore 8K (GE Healthcare). A Biotin CAP sensor chip was used to capture the biotinylated antigens. […] Multi-cycle kinetics was employed where each analyte concentration was injected in a separate cycle and the sensor chip surface was regenerated after each cycle. All the assays were carried out in freshly prepared 1×HBS-EP+buffer (10 mM HEPES, 150 mM NaCl, 3 mM EDTA, 0.05% Tween20, pH 7.4). Data for all the analyte concentrations for each interaction were fit globally to a 1:1 binding model to obtain the kinetic parameters. The Sensorgram for 0 nM analyte concentration was used as reference.

[2] = target: T2, hLTBP1-proTGFβ1 (human, UniProt Q14766 347-1721; P01137 30-390, limits assumed); test: SPR (Biacore), Fab
T2 construct: Large latent complex (LLC): proTGFβ1 dimer disulfide-linked to one presenting molecule; recombinant, purified, biotinylated in BLI/SPR; The same id is used for the complex made by transfected cells in the reporter assays; also called human LTBP1-proTGFβ1 complex; LTBP1-ProTGFb1
Experimental: as §1, §2, §3

[3] = target: T3, mLTBP3-proTGFβ1 (mouse); test: SPR (Biacore), Fab
T3 construct: Murine LLC; also called murine LTBP3-proTGFβ1 complex
Experimental: as §1, §2, §3

[4] = target: T4, mGARP-proTGFβ1 (mouse); test: SPR (Biacore), Fab
T4 construct: Murine LLC; also called murine GARP-proTGFβ1 complex
Experimental: as §1, §2, §3

[5] = target: T5, mLTBP1-proTGFβ1 (mouse); test: SPR (Biacore), Fab
T5 construct: Murine LLC; also called murine LTBP1-proTGFβ1 complex
Experimental: as §1, §2, §3

[6] = target: T6, hGARP-proTGFβ1 (human, UniProt Q14392 18-627; P01137 30-390, limits assumed); test: SPR (Biacore), Fab
T6 construct: LLC as m1; Same id used for the cell-surface complex in reporter assays; also called human GARP-proTGFβ1 complex; GARP-ProTGFb1
Experimental: as §1, §2, §3

[7] = target: T1, hLTBP3-proTGFβ1; test: SPR (Biacore 8K), biotinylated antigen captured, Fab as analyte
Experimental: as §3
(§4) The binding kinetics of antibody interactions with each of the antigen complexes, human LTBP1-ProTGFb1, human LTBP3-ProTGFb1, human GARP-ProTGFb1, and human LRRC33-ProTGFb1, were evaluated by surface plasmon resonance. Binding kinetics was evaluated by surface plasmon resonance using a BIACORE® 8K (GE) instrument. Biotinylated antigens were captured on a Biotin CAP chip and the Fab fragments of the antibodies were used as analytes. Sensorgrams for Fab binding at variable concentrations (0.6-10 nM) were globally fit to obtain the kinetic parameters.
(§5) Binding kinetics for the Fabs were evaluated against each of the four human antigens, LTBP1-ProTGFb1, LTBP3-ProTGFb1, GARP-ProTGFb1, and LRRC33-ProTGFb1. […] These experiments were repeated.

[8] = target: T2, hLTBP1-proTGFβ1; test: as above
Experimental: as §3, §4, §5

[9] = target: T7, hLRRC33-proTGFβ1 (human, UniProt Q86YC3 19-650; P01137 30-390, limits assumed); test: as above
T7 construct: LLC as m1; Same id used for the cell-surface complex in reporter assays; also called human LRRC33-proTGFβ1 complex; LRRC33-ProTGFb1
Experimental: as §3, §4, §5

[10] = target: T6, hGARP-proTGFβ1; test: as above
Experimental: as §3, §4, §5

[11] = target: T7, hLRRC33-proTGFβ1; test: SPR (Biacore), Fab; affinity relative to Ref
[12] = target: T7, hLRRC33-proTGFβ1; test: SPR (Biacore), Fab
[13] = target: endogenous LTBP-proTGFβ1 of human LN229 cells (human, UniProt P01137 30-390); test: cell-based or functional assay
[14] = target: T4, mGARP-proTGFβ1; test: SPR (Biacore), Fab; affinity relative to Ref
[15] = target: mLRRC33-proTGFβ1 (murine, UniProt Q8BMT4 20-651); test: SPR (Biacore), Fab
mLRRC33-proTGFβ1, sequence (Q8BMT4 20-651): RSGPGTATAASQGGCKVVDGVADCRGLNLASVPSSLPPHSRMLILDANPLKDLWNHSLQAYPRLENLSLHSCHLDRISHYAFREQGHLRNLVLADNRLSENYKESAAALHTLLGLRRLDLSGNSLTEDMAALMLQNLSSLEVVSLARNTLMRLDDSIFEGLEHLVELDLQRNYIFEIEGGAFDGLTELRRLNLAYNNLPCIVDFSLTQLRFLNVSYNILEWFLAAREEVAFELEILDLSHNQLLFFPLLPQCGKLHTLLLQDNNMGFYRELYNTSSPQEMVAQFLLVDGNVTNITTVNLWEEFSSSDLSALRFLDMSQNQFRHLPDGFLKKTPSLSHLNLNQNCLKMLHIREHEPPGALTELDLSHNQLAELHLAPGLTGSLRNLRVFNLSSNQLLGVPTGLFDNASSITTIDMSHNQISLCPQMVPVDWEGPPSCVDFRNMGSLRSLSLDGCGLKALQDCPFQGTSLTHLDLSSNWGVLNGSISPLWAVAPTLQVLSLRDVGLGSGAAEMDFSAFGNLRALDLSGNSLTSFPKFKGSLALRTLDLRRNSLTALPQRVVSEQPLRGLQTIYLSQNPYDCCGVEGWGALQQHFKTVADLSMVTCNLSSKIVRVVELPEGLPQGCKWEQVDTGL

T6 sequence (Q14392 18-627 limits assumed, chain 1 of 2): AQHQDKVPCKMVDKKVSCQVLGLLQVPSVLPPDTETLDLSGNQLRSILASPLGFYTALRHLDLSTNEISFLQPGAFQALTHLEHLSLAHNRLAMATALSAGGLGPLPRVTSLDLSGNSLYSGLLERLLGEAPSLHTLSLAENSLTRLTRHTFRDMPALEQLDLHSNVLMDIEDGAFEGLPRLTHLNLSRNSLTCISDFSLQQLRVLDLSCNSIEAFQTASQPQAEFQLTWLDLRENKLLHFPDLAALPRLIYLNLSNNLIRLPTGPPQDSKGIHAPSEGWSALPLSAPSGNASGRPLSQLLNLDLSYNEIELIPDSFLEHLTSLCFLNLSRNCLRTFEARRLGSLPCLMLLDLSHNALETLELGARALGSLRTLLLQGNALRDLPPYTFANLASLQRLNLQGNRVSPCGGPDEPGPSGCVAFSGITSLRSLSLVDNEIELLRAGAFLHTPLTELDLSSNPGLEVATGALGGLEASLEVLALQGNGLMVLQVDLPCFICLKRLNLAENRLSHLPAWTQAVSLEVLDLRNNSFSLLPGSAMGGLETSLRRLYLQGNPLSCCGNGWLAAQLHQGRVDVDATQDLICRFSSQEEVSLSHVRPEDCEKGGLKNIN
T6 sequence (P01137 30-390 limits assumed, chain 2 of 2): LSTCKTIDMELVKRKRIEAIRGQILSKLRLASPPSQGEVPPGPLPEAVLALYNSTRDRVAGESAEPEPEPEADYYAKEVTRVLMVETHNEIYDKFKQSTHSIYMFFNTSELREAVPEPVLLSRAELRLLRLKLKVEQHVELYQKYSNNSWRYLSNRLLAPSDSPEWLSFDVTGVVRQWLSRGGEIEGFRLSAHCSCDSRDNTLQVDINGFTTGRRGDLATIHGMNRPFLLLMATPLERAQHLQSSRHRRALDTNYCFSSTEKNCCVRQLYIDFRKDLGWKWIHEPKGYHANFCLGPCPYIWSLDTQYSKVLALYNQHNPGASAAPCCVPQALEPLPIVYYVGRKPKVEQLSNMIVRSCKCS
T4 sequence (G3XA59 18-663, chain 1 of 2): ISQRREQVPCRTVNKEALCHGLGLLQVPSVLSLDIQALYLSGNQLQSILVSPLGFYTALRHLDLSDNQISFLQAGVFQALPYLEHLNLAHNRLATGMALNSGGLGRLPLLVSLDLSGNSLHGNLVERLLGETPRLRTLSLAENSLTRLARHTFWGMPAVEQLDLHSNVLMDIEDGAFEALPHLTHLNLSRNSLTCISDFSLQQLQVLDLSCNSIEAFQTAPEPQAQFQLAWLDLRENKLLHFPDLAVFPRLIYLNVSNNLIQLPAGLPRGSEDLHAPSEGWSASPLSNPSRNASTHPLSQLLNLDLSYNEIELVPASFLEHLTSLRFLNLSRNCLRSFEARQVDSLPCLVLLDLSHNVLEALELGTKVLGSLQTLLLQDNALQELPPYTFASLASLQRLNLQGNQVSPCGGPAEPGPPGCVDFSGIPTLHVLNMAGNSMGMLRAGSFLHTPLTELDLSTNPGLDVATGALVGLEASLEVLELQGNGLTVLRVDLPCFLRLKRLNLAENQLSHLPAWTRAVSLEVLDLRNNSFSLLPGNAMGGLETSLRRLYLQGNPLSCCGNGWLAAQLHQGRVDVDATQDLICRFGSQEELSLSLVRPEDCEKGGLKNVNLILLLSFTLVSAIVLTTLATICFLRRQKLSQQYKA
T4 sequence (P04202 30-390, chain 2 of 2, further chain): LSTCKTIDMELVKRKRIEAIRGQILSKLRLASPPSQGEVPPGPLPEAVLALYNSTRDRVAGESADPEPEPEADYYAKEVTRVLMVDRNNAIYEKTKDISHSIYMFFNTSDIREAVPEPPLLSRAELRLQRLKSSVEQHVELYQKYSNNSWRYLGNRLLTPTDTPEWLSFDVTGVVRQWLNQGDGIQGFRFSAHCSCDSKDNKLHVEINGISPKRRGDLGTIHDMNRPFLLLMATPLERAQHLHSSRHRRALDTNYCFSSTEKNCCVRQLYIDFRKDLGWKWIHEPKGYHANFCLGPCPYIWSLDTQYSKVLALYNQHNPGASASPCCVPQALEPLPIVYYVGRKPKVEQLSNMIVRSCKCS
T5 sequence (Q8CG19 339-1712): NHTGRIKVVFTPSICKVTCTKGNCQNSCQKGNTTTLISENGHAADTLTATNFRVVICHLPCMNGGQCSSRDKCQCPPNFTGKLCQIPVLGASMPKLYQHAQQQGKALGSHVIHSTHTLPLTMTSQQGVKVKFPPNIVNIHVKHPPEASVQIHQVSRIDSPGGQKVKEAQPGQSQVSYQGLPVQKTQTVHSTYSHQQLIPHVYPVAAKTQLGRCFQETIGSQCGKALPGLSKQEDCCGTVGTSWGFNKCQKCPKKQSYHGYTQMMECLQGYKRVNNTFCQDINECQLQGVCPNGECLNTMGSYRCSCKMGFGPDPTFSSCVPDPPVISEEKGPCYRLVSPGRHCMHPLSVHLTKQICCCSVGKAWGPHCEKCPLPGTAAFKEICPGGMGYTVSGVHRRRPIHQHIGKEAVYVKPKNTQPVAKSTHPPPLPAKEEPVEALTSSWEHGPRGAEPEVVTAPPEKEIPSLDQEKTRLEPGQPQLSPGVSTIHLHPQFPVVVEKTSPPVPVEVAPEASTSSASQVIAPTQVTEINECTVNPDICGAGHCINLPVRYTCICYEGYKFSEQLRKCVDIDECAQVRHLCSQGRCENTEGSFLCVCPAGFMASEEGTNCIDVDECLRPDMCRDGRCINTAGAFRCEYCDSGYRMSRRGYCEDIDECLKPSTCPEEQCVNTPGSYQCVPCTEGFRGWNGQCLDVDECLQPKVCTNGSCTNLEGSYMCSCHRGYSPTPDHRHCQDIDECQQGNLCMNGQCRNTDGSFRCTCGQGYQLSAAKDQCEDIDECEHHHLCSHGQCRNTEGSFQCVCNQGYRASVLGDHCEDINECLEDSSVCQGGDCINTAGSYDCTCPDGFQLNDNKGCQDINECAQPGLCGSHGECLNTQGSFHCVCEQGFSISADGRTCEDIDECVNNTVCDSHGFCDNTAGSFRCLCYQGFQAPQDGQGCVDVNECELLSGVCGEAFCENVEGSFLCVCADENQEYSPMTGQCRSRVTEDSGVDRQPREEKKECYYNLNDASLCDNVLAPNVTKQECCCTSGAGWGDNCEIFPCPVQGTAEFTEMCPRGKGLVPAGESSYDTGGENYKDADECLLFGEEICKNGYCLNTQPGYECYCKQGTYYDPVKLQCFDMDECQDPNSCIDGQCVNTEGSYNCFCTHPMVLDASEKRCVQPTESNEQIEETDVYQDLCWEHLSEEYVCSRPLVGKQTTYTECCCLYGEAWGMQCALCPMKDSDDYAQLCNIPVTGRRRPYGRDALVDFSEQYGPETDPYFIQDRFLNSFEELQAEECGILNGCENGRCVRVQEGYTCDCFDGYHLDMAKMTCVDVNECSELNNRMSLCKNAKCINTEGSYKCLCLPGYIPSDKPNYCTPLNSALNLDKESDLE
T7 sequence (Q86YC3 19-650 limits assumed, chain 1 of 2): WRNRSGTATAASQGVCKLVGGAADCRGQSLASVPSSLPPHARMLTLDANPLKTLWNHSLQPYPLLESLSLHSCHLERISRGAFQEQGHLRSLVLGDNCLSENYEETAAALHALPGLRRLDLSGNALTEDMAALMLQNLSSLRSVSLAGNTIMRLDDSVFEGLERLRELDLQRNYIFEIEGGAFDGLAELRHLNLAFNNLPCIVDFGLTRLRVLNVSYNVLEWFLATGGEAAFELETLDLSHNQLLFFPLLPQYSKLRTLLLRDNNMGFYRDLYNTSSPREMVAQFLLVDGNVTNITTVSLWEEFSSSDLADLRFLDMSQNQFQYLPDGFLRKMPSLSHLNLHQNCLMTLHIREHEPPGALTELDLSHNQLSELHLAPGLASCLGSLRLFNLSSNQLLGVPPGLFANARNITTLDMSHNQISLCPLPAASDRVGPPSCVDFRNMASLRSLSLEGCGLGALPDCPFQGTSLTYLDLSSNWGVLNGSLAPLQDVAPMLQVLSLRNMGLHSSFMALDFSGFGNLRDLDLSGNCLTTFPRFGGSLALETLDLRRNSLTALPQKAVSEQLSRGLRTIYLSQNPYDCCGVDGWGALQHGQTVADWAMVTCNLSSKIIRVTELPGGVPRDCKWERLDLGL
T7 sequence (P01137 30-390 limits assumed, chain 2 of 2): as the sequence (P01137 30-390 limits assumed, chain 2 of 2) above
endogenous LTBP-proTGFβ1 of human LN229 cells, sequence (P01137 30-390): as the sequence (P01137 30-390 limits assumed, chain 2 of 2) above

B1: Ab46 Fab (Fab, V domains shown)
VH: EVQLLESGGGLVQPGGSLRLSCAASGFTFADYAMTWVRQAPGKGLEWVSAISGSGAATYFADSVKGRFTISRDNSKNTLYLQMNSLRAEDTAVYYCARVSSGHWDYDYWGQGTLVTVSS
VL: DIQLTQSPSSLSASVGDRVTITCRASQSISSYLNWYQQKPGKAPKLLIYAASGLESGVPSRFSGSGSGTDFTLTISSLQPEDFATYYCQQTYGVPLTFGGGTKVEIK
notes: Fab fragment
In the case of B1, the Kd [1] is reported as 0.127 nM, the koff [1] is reported as 0.000128 s⁻¹ and the kon [1] is reported as 1e+06 M⁻¹ s⁻¹. For the same binder, the Kd [2] was 0.0502 nM, the koff [2] was 8.81e-05 s⁻¹ and the kon [2] was 1.75e+06 M⁻¹ s⁻¹. It also gave a Kd [3] of 0.0956 nM, a koff [3] of 0.000115 s⁻¹ and a kon [3] of 1.2e+06 M⁻¹ s⁻¹. For the same binder, the Kd [4] was 0.274 nM, the koff [4] was 0.000278 s⁻¹ and the kon [4] was 1.02e+06 M⁻¹ s⁻¹. The Kd [5] was 0.0534 nM, the koff [5] was 9.87e-05 s⁻¹ and the kon [5] was 1.85e+06 M⁻¹ s⁻¹. The Kd [6] was 0.23 nM, the koff [6] was 0.000222 s⁻¹ and the kon [6] was 965000 M⁻¹ s⁻¹. For the same binder, the Kd [7] was 0.109 nM, the koff [7] was 0.000195 s⁻¹ and the kon [7] was 1.78e+06 M⁻¹ s⁻¹. It also gave a Kd [8] of 0.035 nM, a koff [8] of 8.52e-05 s⁻¹ and a kon [8] of 2.44e+06 M⁻¹ s⁻¹. For the same binder, the Kd [9] was 0.119 nM, the koff [9] was 0.000162 s⁻¹ and the kon [9] was 1.36e+06 M⁻¹ s⁻¹. For the same binder, the Kd [10] was 0.19 nM, the koff [10] was 0.000359 s⁻¹ and the kon [10] was 1.89e+06 M⁻¹ s⁻¹. It also gave a Fold difference [11] of 118 fold, a Kd [12] of 0.0841 nM and a koff [12] of 0.000128 s⁻¹. The kon [12] was 1.52e+06 M⁻¹ s⁻¹, the “fAb IC50” value [13] was 0.723 nM and the Fold difference [14] was 69 fold. For the same binder, the Kd [15] was 0.0892 nM, the koff [15] was 0.000112 s⁻¹ and the kon [15] was 1.26e+06 M⁻¹ s⁻¹.
